From paper PMC10167949
The star is where a group is joined. Biotin = O=C1N[C@H]2[C@H](CS[C@H]2CCCCC(=O)*)N1

Tests used:
[1] = biological target: T1, Unphosphorylated full-length MST2 (MST2-FL) (human) (UniProt Q13188)
T1 sequence: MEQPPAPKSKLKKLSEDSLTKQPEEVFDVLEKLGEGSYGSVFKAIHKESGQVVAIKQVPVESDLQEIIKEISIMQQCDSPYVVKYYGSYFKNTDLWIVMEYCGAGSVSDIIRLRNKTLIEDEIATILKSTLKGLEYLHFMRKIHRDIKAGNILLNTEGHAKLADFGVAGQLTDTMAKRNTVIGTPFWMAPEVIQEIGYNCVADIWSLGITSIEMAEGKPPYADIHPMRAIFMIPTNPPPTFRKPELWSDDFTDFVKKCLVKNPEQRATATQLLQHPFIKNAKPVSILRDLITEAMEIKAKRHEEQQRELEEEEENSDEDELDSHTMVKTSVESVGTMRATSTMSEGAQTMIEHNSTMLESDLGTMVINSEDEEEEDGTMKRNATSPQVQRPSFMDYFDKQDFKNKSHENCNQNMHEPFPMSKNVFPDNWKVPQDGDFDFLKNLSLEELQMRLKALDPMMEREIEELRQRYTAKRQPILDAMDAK

[2] = biological target: Phosphorylated full-length MST2 (pMST2-FL) (human) (UniProt Q13188)
[3] = biological target: Phosphorylated MST2 kinase linker (pMST2-KL) (human) (UniProt Q13188)
[4] = biological target: Phosphorylated MST2 kinase domain (pMST2-K) (human) (UniProt Q13188)

B1: peptide substrate (Biotin-…-NH2) (peptide)
peptide: Biotin-GGGENWYNTLKRKK-NH2
SMILES: CC(C)C[C@H](NC(=O)[C@@H](NC(=O)[C@H](CC(N)=O)NC(=O)[C@H](Cc1ccc(O)cc1)NC(=O)[C@H](Cc1c[nH]c2ccccc12)NC(=O)[C@H](CC(N)=O)NC(=O)[C@H](CCC(=O)O)NC(=O)CNC(=O)CNC(=O)CNC(=O)CCCC[C@@H]1SC[C@@H]2NC(=O)N[C@@H]21)[C@@H](C)O)C(=O)N[C@@H](CCCCN)C(=O)N[C@@H](CCCNC(=N)N)C(=O)N[C@@H](CCCCN)C(=O)N[C@@H](CCCCN)C(N)=O
B1 was tested, and the Km^app peptide, radiometric kinase assay (steady state, 30°C) [1] was 139 µM, the Km^app peptide, radiometric kinase assay (steady state, 30°C) [2] was 32 µM and the Km^app peptide, radiometric kinase assay (steady state, 30°C) [3] was 35 µM. For the same binder, the Km^app peptide, radiometric kinase assay (steady state, 30°C) [4] was 27 µM.
